Assay results from patent US20170152288A1 (published 2017).

Molecular target: T1, rProtein A Sepharose FF (Staphylococcus aureus, UniProt P38507 37-327, immobilized on Sepharose FF chromatography resin (commercial, GE Healthcare))
T1 construct: all other ligands (L1-L78, A2P, MEP Hypercel) are small molecules; also called rProtA; rProtein A Sepharose 4 FF
Test: batch adsorption in 96-well plates, Langmuir isotherm fit, Bradford assay of supernatant

B1: Bevacizumab (Avastin, F. Hoffmann-La Roche, Switzerland) (antibody, V domains shown)
VH: EVQLVESGGGLVQPGGSLRLSCAASGYTFTNYGMNWVRQAPGKGLEWVGWINTYTGEPTYAADFKRRFTFSLDTSKSTAYLQMNSLRAEDTAVYYCAKYPHYYGSSHWYFDVWGQGTLVTVSS
VL: DIQMTQSPSSLSASVGDRVTITCSASQDISNYLNWYQQKPGKAPKVLIYFTSSLHSGVPSRFSGSGSGTDFTLTISSLQPEDFATYYCQQYSTVPWTFGQGTKVEIK
Work on B1 yielded a Kd of 4.7 µg/mL.
